Data as given in article PMC7614532 (Cell, 2023).

Biological target: N-terminally SNAP-tagged human β2AR (SNAP-β2AR) (human, UniProt P07550 1-413)
Assay: single-molecule co-localisation

- average interaction time: ~1 s
B1: bovine βArr2 tagged C-terminally with Halo (βArr2-Halo) (natural protein)
chain: MGEKPGTRVFKKSSPNCKLTVYLGKRDFVDHLDKVDPVDGVVLVDPDYLKDRKVFVTLTCAFRYGREDLDVLGLSFRKDLFIANYQAFPPTPNPPRPPTRLQERLLRKLGQHAHPFFFTIPQNLPCSVTLQPGPEDTGKACGVDFEIRAFCAKSLEEKSHKRNSVRLVIRKVQFAPEKPGPQPSAETTRHFLMSDRSLHLEASLDKELYYHGEPLNVNVHVTNNSTKTVKKIKVSVRQYADICLFSTAQYKCPVAQVEQDDQVSPSSTFCKVYTITPLLSNNREKRGLALDGKLKHEDTNLASSTIVKEGANKEVLGILVSYRVKVKLVVSRGGDVSVELPFVLMHPKPHDHIALPRPQSAAPETDAPVDTNLIEFETNYATDDDIVFEDFARLRLKGLKDEDYDDQFC
